Results: article PMC7061307 (Molecular cell, 2019)

B1: TATA-box binding protein (TBP): TBP3X-T114A (protein)
parent chain: MDQNNSLPPYAQGLASPQGAMTPGIPIFSPMMPYGTGLTPQPIQNTNSLSILEEQQRQQQQQQQQQQQQQQQQQQQQQQQQQQQQQQQQQQQQQQAVAAAAVQQSTSQQATQGTSGQAPQLFHSQTLTTAPLPGTTPLYPSPMTPMTPITPATPASESSGIVPQLQNIVSTVNLGCKLDLKTIALRARNAEYNPKRFAAVIMRIREPRTTALIFSSGKMVCTGAKSEEQSRLAARKYARVVQKLGFPAKFLDFKIQNMVGSCDVKFPIRLEGLVLTHQQFSSYEPELFPGLIYRMIKPRIVLLIFVSGKVVLTGAKVRAEIYEAFENIYPILKGFRKTT
B2: B-TFIID TATA-Box Binding Protein Associated Factor 1 (BTAF1), endogenous human (natural protein, UniProt O14981 1-1849, looked up)
chain: MAVSRLDRLFILLDTGTTPVTRKAAAQQLGEVVKLHPHELNNLLSKVLIYLRSANWDTRIAAGQAVEAIVKNVPEWNPVPRTRQEPTSESSMEDSPTTERLNFDRFDICRLLQHGASLLGSAGAEFEVQDEKSGEVDPKERIARQRKLLQKKLGLNMGEAIGMSTEELFNDEDLDYTPTSASFVNKQPTLQAAELIDSEFRAGMSNRQKNKAKRMAKLFAKQRSRDAVETNEKSNDSTDGEPEEKRRKIANVVINQSANDSKVLIDNIPDSSSLIEETNEWPLESFCEELCNDLFNPSWEVRHGAGTGLREILKAHGKSGGKMGDSTLEEMIQQHQEWLEDLVIRLLCVFALDRFGDFVSDEVVAPVRETCAQTLGVVLKHMNETGVHKTVDVLLKLLTQEQWEVRHGGLLGIKYALAVRQDVINTLLPKVLTRIIEGLQDLDDDVRAVAAASLVPVVESLVYLQTQKVPFIINTLWDALLELDDLTASTNSIMTLLSSLLTYPQVQQCSIQQSLTVLVPRVWPFLHHTISSVRRAALETLFTLLSTQDQNSSSWLIPILPDMLRHIFQFCVLESSQEILDLIHKVWMELLSKASVQYVVAAACPWMGAWLCLMMQPSHLPIDLNMLLEVKARAKEKTGGKVRQGQSQNKEVLQEYIAGADTIMEDPATRDFVVMRARMMAAKLLGALCCCICDPGVNVVTQEIKPAESLGQLLLFHLNSKSALQRISVALVICEWAALQKECKAVTLAVQPRLLDILSEHLYYDEIAVPFTRMQNECKQLISSLADVHIEVGNRVNNNVLTIDQASDLVTTVFNEATSSFDLNPQVLQQLDSKRQQVQMTVTETNQEWQVLQLRVHTFAACAVVSLQQLPEKLNPIIKPLMETIKKEENTLVQNYAAQCIAKLLQQCTTRTPCPNSKIIKNLCSSLCVDPYLTPCVTCPVPTQSGQENSKGSTSEKDGMHHTVTKHRGIITLYRHQKAAFAITSRRGPTPKAVKAQIADLPAGSSGNILVELDEAQKPYLVQRRGAEFALTTIVKHFGGEMAVKLPHLWDAMVGPLRNTIDINNFDGKSLLDKGDSPAQELVNSLQVFETAAASMDSELHPLLVQHLPHLYMCLQYPSTAVRHMAARCVGVMSKIATMETMNIFLEKVLPWLGAIDDSVKQEGAIEALACVMEQLDVGIVPYIVLLVVPVLGRMSDQTDSVRFMATQCFATLIRLMPLEAGIPDPPNMSAELIQLKAKERHFLEQLLDGKKLENYKIPVPINAELRKYQQDGVNWLAFLNKYKLHGILCDDMGLGKTLQSICILAGDHCHRAQEYARSKLAECMPLPSLVVCPPTLTGHWVDEVGKFCSREYLNPLHYTGPPTERIRLQHQVKRHNLIVASYDVVRNDIDFFRNIKFNYCILDEGHVIKNGKTKLSKAVKQLTANYRIILSGTPIQNNVLELWSLFDFLMPGFLGTERQFAARYGKPILASRDARSSSREQEAGVLAMDALHRQVLPFLLRRMKEDVLQDLPPKIIQDYYCTLSPLQVQLYEDFAKSRAKCDVDETVSSATLSEETEKPKLKATGHVFQALQYLRKLCNHPALVLTPQHPEFKTTAEKLAVQNSSLHDIQHAPKLSALKQLLLDCGLGNGSTSESGTESVVAQHRILIFCQLKSMLDIVEHDLLKPHLPSVTYLRLDGSIPPGQRHSIVSRFNNDPSIDVLLLTTHVGGLGLNLTGADTVVFVEHDWNPMRDLQAMDRAHRIGQKRVVNVYRLITRGTLEEKIMGLQKFKMNIANTVISQENSSLQSMGTDQLLDLFTLDKDGKAEKADTSTSGKASMKSILENLSDLWDQEQYDSEYSLENFMHSLK

Columns and labels:
[1] = TBP:BTAF1 interaction under LG, HG, TMG, Ac4SGlcNAc; conditions: glycan lost; control: TBP3X-WT cells
[2] = IP and anti-phosphothreonine blot; conditions: glycan lost; control: TBP3X-WT cells
ChIP-qPCR ± TMG = conditions: glycan lost; control: TBP3X-WT cells
[3] = molecular target: 3XFLAG-TBP T114A (p3XFLAG-cmv10 construct) (human, UniProt P20226 1-339, T114A); assay: co-IP

| Binder | other: response of BTAF1 binding to glucose/TMG/Ac4SGlcNAc [1] | other: TBP phosphorylation [2] | other: TMG-induced rise in promoter occupancy (ChIP-qPCR ± TMG) | fold amount of BTAF1 co-IPed against TBP^WT [3] |
| --- | --- | --- | --- | --- |
| B1 | abolishes | no change | abolishes | – |
| B2 | – | – | – | ~3 fold |
